Laboratory results: patent US20100092460A1 (Ablynx, published 2010)

Legend:
[1] = molecular target: T1, recombinant human CXCL11/I-TAC (human, UniProt O14625 22-94, biotinylated in the ELISA; 125I label in the radioligand assays); test: inhibition of 125I-CXCL11 binding to hCXCR3 (HEK293T cells), 10x diluted periplasm; ELISA grade at the label
T1 sequence (looked up): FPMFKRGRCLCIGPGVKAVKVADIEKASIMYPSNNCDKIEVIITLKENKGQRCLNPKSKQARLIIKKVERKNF

[2] = molecular target: T1, recombinant human CXCL11/I-TAC; test: as above; remark: listed apart in the source
[3] = molecular target: T1, recombinant human CXCL11/I-TAC; test: cell-based or functional assay
[4] = molecular target: T1, recombinant human CXCL11/I-TAC; test: inhibition of 125I-CXCL11 (46 pM) binding to hCXCR3 on HEK293T cells; radioligand preincubated with purified Nanobody
[5] = molecular target: T2, recombinant human CCL5/RANTES (Mucin stalk Chimera) (human, UniProt P13501 24-91, biotinylated in the ELISA); test: ELISA, periplasmic extract on biotinylated mucin-CCL5 on neutravidin, anti-myc detection
T2 construct: also called mucin-CCL5; not shown: mucin stalk of the chimera (R&D 978-RN/CF); origin, limits and order not described
T2 sequence (looked up): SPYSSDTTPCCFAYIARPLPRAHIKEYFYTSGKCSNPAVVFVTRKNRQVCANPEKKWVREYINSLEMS

CCL5 = molecular target: T3, CCL5 (UniProt P13501 24-91, 125I label); test: inhibition of 125I-CCL5 binding to hCCR1 (HEK293T cells), purified Nanobody
T3 construct: also called RANTES
T3 sequence (looked up): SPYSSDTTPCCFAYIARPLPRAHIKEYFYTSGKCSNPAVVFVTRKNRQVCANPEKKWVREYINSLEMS

[6] = molecular target: T4, recombinant human CCL2/MCP1 (human, UniProt P13500 24-99, 125I label in the radioligand assays); test: inhibition of 125I-CCL2 binding to HCMV-US28 (HEK293T cells), 10x diluted periplasm; ELISA grade at the label
T4 construct: Immunogen and selection antigen was the Mucin stalk Chimera (R&D 979-MC/CF)
T4 sequence (P13500 24-99 limits assumed): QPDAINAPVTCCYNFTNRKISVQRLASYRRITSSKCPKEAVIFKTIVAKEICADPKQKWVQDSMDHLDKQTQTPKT

[7] = molecular target: T4, recombinant human CCL2/MCP1; test: inhibition of 125I-CCL2 binding to hCCR2 (HEK293T cells), purified Nanobody
[8] = molecular target: T1, recombinant human CXCL11/I-TAC; test: ELISA, Nanobody captured by coated anti-myc antibody, biotinylated CXCL11, streptavidin-HRP

B1: Nanobody 11D9 (VHH)
VHH: EVQLVESGGGLVQAGGSLRLSCAASGFTFDDYPIGWFRQAPGKEREGISCISSSDGSTYYADSVKGRFTISSDNAKNTVYLQMNSLKPEDTAVYYCAAGLGALVRYYSGSYYCDGMDYWGKGTLVTVSS
notes: llama VHH against CXCL11; not shown: C-terminal c-myc tag and (His)6 tag coded by the vector
binding result [1]: binds

B2: Nanobody 11E2 (VHH)
VHH: EVQLVESGGGLVQAGGSLRLSCAASGFTFDDYAIGWFRQAPGKEREGVSCISSSDDSTYYADSVKGRFTISSDTAKNTVYLQMDSLKPEDTAVYYCAKDCIIPPIGSWGQGTQVTVSS
notes: as for B1
binding result [2]: binds

B3: Nanobody 11B1 (VHH)
VHH: EVQLVESGGGLVQAGGSLRLSCAASGFTFDDYTIGWFRQAPGKEREGVSCISSSDGSTYYADSVKGRFTISSDNVKNTVYLQMNSLKPEDTAVYYCAASLGFLTAQCMGVMSIGLSEYDYWGQGTQVTVSS
notes: llama VHH against CXCL11; purified; not shown: C-terminal c-myc tag and (His)6 tag coded by the vector
inhibition of CXCL11-induced PLC activation (3H-inositol phosphate accumulation, HEK293T cells with CXCR3 and G-alpha-qi5), pIC50 [3]: 7.8
pIC50 [4]: 9.6

B4: Nanobody 10A12 (VHH)
VHH: EVQLVESGGGLVQAGGSLRLSCAASGFTFDDYAIGWFRQVPGKERKGVSCISSSDGTTYYEDSVKGRFTISSDNAKNTIYLQMNSLKPEDTAVYYCAAAPPDCTYYPATPIYYWGQGTQVTVSS
notes: llama VHH against CCL5; purified; not shown: C-terminal c-myc tag and (His)6 tag coded by the vector
binding result [5]: binds
binding result (CCL5): binds

B5: Nanobody 8H7 (VHH)
VHH: EVQLVESGGGLVQAGDSLRLSCAASGRTFSSYRMGWFRQAPGKEREFVAAISRSGASAYYADSVKGRFTSSRDNAKNTVYLQMNKLKPEDTAVYYCAASSRIGVDDPEAYGYWSQGTQVTVSS
notes: llama VHH against CCL2; not shown: C-terminal c-myc tag and (His)6 tag coded by the vector
binding result [6]: binds

B6: Nanobody 10E8 (VHH)
VHH: EVQLVESGGGLVQAGGSLRLSCAASGRTFSSYYMGWFRQAPGKEREFVARIGWSSGSTYYADSMKGRFTISRDNAKNTVYLQMNSLKPEDTAVYYCAAAPRYTLATVTYDYDYWGQGTQVTVSS
notes: as for B4
binding result [5]: binds
binding result (CCL5): binds

B7: Nanobody 11B2 (VHH)
VHH: EVQLVESGGGLVQAGGSLRLSCAASGFTFDDYAMCWFRQAPGKEREGVSCISSSDGSTYYADSVKGRFTISSDNAKNTVYLHMNSLKPEDTAVYYCAAAQGVVAGASLVWVPLDEYDYWGQGTQVTVSS
notes: as for B3
inhibition of CXCL11-induced PLC activation (3H-inositol phosphate accumulation, HEK293T cells with CXCR3 and G-alpha-qi5), pIC50 [3]: 7.6
pIC50 [4]: 9.1

B8: Nanobody 8A3 (VHH)
VHH: EVQLVESGGGLVQAGGSLRLSCVASGLTFSTYSMGWFRQAPGKEREFVAAINGGGSSTTYADSVKGRFTISRDNAKNTVYLQMNSLKPEDTAVYSCAVKMYSGSYSSPPGYNYWGQGTQVTVSS
notes: as for B5
binding result [7]: binds

B9: Nanobody 11A3 (VHH)
VHH: EVQLVESGGGLVQAGGSLRLSCAASGFSFDDYVIGWFRQAPGKEREGVSLISSSDGSTYYADSVKGRFTISSDNAKNTVYLQMNSLKPEDTAVYYCAAGNGLLRLWMFHVSAYDYWGQGTQVTVSS
notes: as for B1
binding result [2]: binds

B10: Nanobody 38C6 (VHH)
VHH: EVQLVESGGGLVQAGGSLRLSCAASGFTFDDYAIGWFRQAPGKEREGVSCCSSSDGSTYYADSVKGRFTISSDNAKNTVYLQMNSLKPEDTAVYYCAATQGLTIATMWNPVSYDYWGQGTQVTVSS
notes: as for B1
binding result [8]: binds

B11: Nanobody 11H2 (VHH)
VHH: EVQLVESGGGLVQAGGSLRLSCAASGFTFDDYAIGWFRQAPGKEREGVSCISSSDGDTYYADSVKGRFTASSDNAKNTVYLQINSLKPEDTAVYYCAAGQGLLIAQALRWESYDYWGQGTQVTVSS
notes: as for B3
binding result [2]: binds

B12: Nanobody 38G6 (VHH)
VHH: EVQLVESGGGLVQAGGSLRLSCEASGFTFDDYAIGWFRQAPGKEREGVSCCSSSDGSTYYADSVKGRFTISSDNAKNTVYLQMNSLKPEDTAVYYCAATQGLLIATMWNPASYDYWGQGTQVTVSS
notes: as for B1
binding result [8]: binds

B13: Nanobody 11F10 (VHH)
VHH: EVQLVESGGGLVQAGGSLRLSCAASGFTLDDYAIGWFRQAPGKEREGVSCISSSDGSTYYADSVKGRFTISSDNAKNTVYLQMNSLKPEDTAVYYCAAGQGVLRLWVLSSSSYDYWGQGTQVTVSS
notes: as for B1
binding result [1]: binds

B14: Nanobody 38E6 (VHH)
VHH: EVQLVESGGGLAQPGGSLRLSCAASGFTFSSYAMSWVRQAPGKGLEWVSAINSGGGSTSYADSVKGRFTISRDNAKNTLYLQMNSLKPEDTAVYYCQRGDYEFEPLEYDYWGQGTQVTVSS
notes: as for B1
binding result [8]: binds

B15: Nanobody 11C2 (VHH)
VHH: EVQLVESGGGLVQAGGSLRLPCAASGFTFDDYVIGWFRQAPGKEREGVSLISSSDGSTYYADSVKGRFTISSDNAKNTVYLQMNGLKPEDTAVYYCAATSSIPYYSGSYYPNPFEYDYWGQGTQVTVSS
notes: as for B1
binding result [2]: binds

B16: Nanobody 11B7 (VHH)
VHH: EVQLVESGGGLVQAGGSLRLSCAASGFNFDDYAIGWFRQAPGKEREGVSIISSSDGNTYYADSVKGRFTISSDNAKNTVYLQMNSLKPEDTAVYYCAAGQGWVIATMTSFRAHREYDYWGQGTQVTVSS
notes: as for B3
inhibition of CXCL11-induced PLC activation (3H-inositol phosphate accumulation, HEK293T cells with CXCR3 and G-alpha-qi5), pIC50 [3]: 7.9
pIC50 [4]: 9.6

B17: Nanobody 11E7 (VHH)
VHH: EVQLVESGGGLVQAGGSLRLSCAASGFTFDDYAIGWFRQAPGKEREGVSIISSSDGTTYYADSVKGRFTISTDNAKNTVYLQMNSLKPEDTAVYYCAAGQGWVIATMTSFRAHREYDYWGQGTQVTVSS
notes: as for B1
binding result [1]: binds

B18: Nanobody 15A8 (VHH)
VHH: EVQLVESGGGLVQAGGSLRLSCAASGFTFDDYAIGWFRQAPGKEREGPLCISSSDGSTYYADSVKGRFTISSDNAKNTVYLQMNSLKPEDTAVYYCAAESLGDYGLASPLPADFGSWGQGTQVTVSS
notes: as for B5
binding result [6]: binds

B19: Nanobody 8A8 (VHH)
VHH: EVQLVESGGGLVQAGGSLRLSCAASGRTFSSYRMGWFRQAPEKEREFVAVITRSGSDQFYSNSVKGRFTISRDNAKNTVYLQMNSLKPEDTAVYYCAAGAQIGWAEASTYDYWGQGTQVTVSS
notes: llama VHH against CCL2; also called 8D8; 15C7; not shown: C-terminal c-myc tag and (His)6 tag coded by the vector
binding result [6]: binds

B20: Nanobody 15C8 (VHH)
VHH: EVQLVESGGGLVQAGGSLRLSCAASGRTFSSYRMGWFRQAPEKEREFVAVITRSGGSTFYSNSVKGRFTISRDNAKNTVYLQMNSLKPEDTAVYYCAAGAQMGWAEASTYDYWGQGTQVTVSS
notes: as for B5
binding result [6]: binds

B21: Nanobody 8H8 (VHH)
VHH: EMQLVESGGGLVQAGGSLRLSCAASGRTFSSYRMGWFRQAPEKEREFVALINRSGGSQFYSNSVKGRFTISRDNAKNTVYLQMNSLKPEDTAVYYCAAGAQMGWAEASTYDYWGQGTQVTVSS
notes: as for B5
binding result [6]: binds

B22: Nanobody 11G10 (VHH)
VHH: EVQLVESGGGLVQPGGSLRLSCAASGFTLDDYAIGWFRQAPGKEREGVSSISSSDGRTYYADSVKGRFAISRDNAKNTVYLQMNSLKPEDTAVYYCAADQGVVAYDALRPYRWLEVWGQGTLVTVSS
notes: as for B1
binding result [1]: binds

B23: Nanobody 11G2 (VHH)
VHH: EVQLVESGGGLVQAGGSLRLSCAASGFTFDDYAIGWFRQAPGKEREGVSWISSSDGSTYYADSVKGRFTISSDNAKNTVYLQMNSLKPEDTAVYYCAAGAGFLITTIWTTQMYDYWGQGTQVTVSS
notes: as for B1
binding result [2]: binds

B24: Nanobody 8D3 (VHH)
VHH: EVQLVESGGGLVQAGGSLRLSCAASGRTFSNYAMGWFRQAPGKEREFVAAISWSDGSTYYADSVKGRFTISRDNAKNTVYLLMNSLNPEDTAVYYCAADLLAEDPAAPSRGYDYWGQGTQVTVSS
notes: as for B5
binding result [7]: binds

B25: Nanobody 11F2 (VHH)
VHH: EVQLVESGGGLVQPGGSLRLSCAASGFTFSSYAMSWVRQAPGKGLEWVSSIYSDGSNTYYADSVKGRFTISRDNAKNTLYLQMNSLKSEDTAVYYCAKKDYAVVPLDEYDYWGQGTQVTVSS
notes: llama VHH against CXCL11; also called 38D11; not shown: C-terminal c-myc tag and (His)6 tag coded by the vector
binding result [2]: binds
